{"source": "the RNAGym collection of RNA variant scans (doi:10.7554/elife.80360)", "parents": {"B1": {"name": "HDV Ribozyme (parent)", "chain": "GGCCGGCAUGGUCCCAGCCUCCUCGCUGGCGCCGGCUGGGCAACAUUCCGAGGGGACCGUCCCCUCGGUAAUGGCGAAUGGGACCCA"}}}
{"variants_of": "B1", "assay": "self-cleavage, relative activity (ratio to wild type); higher = more cleavage; co-transcriptional"}
{"variant": "U27A G50U", "self-cleavage": 0.99}
{"variant": "U27G C36U", "self-cleavage": 0.322}
{"variant": "U27G C36A", "self-cleavage": 0.0639}
{"variant": "U27C C63A", "self-cleavage": 0.883}
{"variant": "U27C C63G", "self-cleavage": 0.639}
{"variant": "U27C C33G", "self-cleavage": 0.237}
{"variant": "U27C C33U", "self-cleavage": 0.453}
{"variant": "U27C G80C", "self-cleavage": 0.101}
{"variant": "U27G C62G", "self-cleavage": 1.14}
{"variant": "U27G C62U", "self-cleavage": 1.02}
{"variant": "U27G C62A", "self-cleavage": 1.09}
{"variant": "U27A G68U", "self-cleavage": 0.875}
{"variant": "U27A G68A", "self-cleavage": 0.944}
{"variant": "U27C U60G", "self-cleavage": 0.875}
{"variant": "U27C U60C", "self-cleavage": 0.677}
{"variant": "U27G C33A", "self-cleavage": 0.185}
{"variant": "U27G C33U", "self-cleavage": 0.935}
{"variant": "U27G A43G", "self-cleavage": 0.302}
{"variant": "U27G A43C", "self-cleavage": 0.166}
{"variant": "U27A G81U", "self-cleavage": 0.502}
{"variant": "U27C A83G", "self-cleavage": 0.727}
{"variant": "U27C A83C", "self-cleavage": 0.554}
{"variant": "U27C A83U", "self-cleavage": 0.465}
{"variant": "U27G A71C", "self-cleavage": 0.7}
{"variant": "U27C C85A", "self-cleavage": 0.978}
{"variant": "U27C C85U", "self-cleavage": 1.04}
{"variant": "U27A U46C", "self-cleavage": 0.733}
{"variant": "U27A U46G", "self-cleavage": 0.369}
{"variant": "U27A G73C", "self-cleavage": 0.0639}
{"variant": "U27A G76U", "self-cleavage": 0.65}
{"variant": "U27C G53U", "self-cleavage": 0.746}
{"variant": "U27G A45U", "self-cleavage": 0.831}
{"variant": "U27G A45C", "self-cleavage": 0.26}
{"variant": "U27C A45C", "self-cleavage": 0.237}
{"variant": "U27C C75U", "self-cleavage": 0.161}
{"variant": "U27A G55U", "self-cleavage": 1.14}
{"variant": "U27C G54C", "self-cleavage": 0.538}
{"variant": "U27A G59A", "self-cleavage": 0.919}
{"variant": "U27C G35C", "self-cleavage": 0}
{"variant": "U27A G54U", "self-cleavage": 0.845}
{"variant": "U27C C41G", "self-cleavage": 0.217}
{"variant": "U27C C41U", "self-cleavage": 0.604}
{"variant": "U27C C41A", "self-cleavage": 0.192}
{"variant": "U27C G50C", "self-cleavage": 0.858}
{"variant": "U27G C30A", "self-cleavage": 0.458}
{"variant": "U27C A43C", "self-cleavage": 0.172}
{"variant": "U27C A77C", "self-cleavage": 0.192}
{"variant": "U27C A87C", "self-cleavage": 0.595}
{"variant": "U27A U79C", "self-cleavage": 0.201}
{"variant": "U27C C30A", "self-cleavage": 0.415}
{"variant": "U27C C30G", "self-cleavage": 0}
{"variant": "U27C C30U", "self-cleavage": 0.426}
{"variant": "U27C G52U", "self-cleavage": 1.01}
{"variant": "U27C C57G", "self-cleavage": 0.639}
{"variant": "U27C C57U", "self-cleavage": 0.707}
{"variant": "U27A U47G", "self-cleavage": 0.89}
{"variant": "U27A G52C", "self-cleavage": 0.914}
{"variant": "U27A G52A", "self-cleavage": 0.844}
{"variant": "U27A G80C", "self-cleavage": 0.469}
{"variant": "U27C G28U", "self-cleavage": 0.0678}
{"variant": "U27C G28A", "self-cleavage": 0.135}
{"variant": "U27C G81C", "self-cleavage": 0.369}
{"variant": "U27C C48G", "self-cleavage": 0.831}
{"variant": "U27G C48G", "self-cleavage": 0.923}
{"variant": "U27G C66U", "self-cleavage": 1.02}
{"variant": "U27G C66A", "self-cleavage": 0.532}
{"variant": "U27C A78G", "self-cleavage": 0.227}
{"variant": "U27C A78U", "self-cleavage": 0.297}
{"variant": "U27C G67U", "self-cleavage": 0.798}
{"variant": "U27C G67C", "self-cleavage": 0.997}
{"variant": "U27C G67A", "self-cleavage": 0.886}
{"variant": "U27C G34A", "self-cleavage": 0.289}
{"variant": "U27G C32U", "self-cleavage": 0.831}
{"variant": "U27G C32G", "self-cleavage": 0}
{"variant": "U27G C32A", "self-cleavage": 0.185}
{"variant": "U27A U65A", "self-cleavage": 0.95}
{"variant": "U27C U46C", "self-cleavage": 0.138}
{"variant": "U27C U46G", "self-cleavage": 0.332}
{"variant": "U27C C64U", "self-cleavage": 0.895}
{"variant": "U27C G59C", "self-cleavage": 0.751}
{"variant": "U27C G59A", "self-cleavage": 0.742}
{"variant": "U27G C75U", "self-cleavage": 0.138}
{"variant": "U27G C57A", "self-cleavage": 1.22}
{"variant": "U27G C57G", "self-cleavage": 0.895}
{"variant": "U27G C57U", "self-cleavage": 0.987}
{"variant": "U27C A71G", "self-cleavage": 0.677}
{"variant": "U27C A71U", "self-cleavage": 0.639}
{"variant": "U27C A71C", "self-cleavage": 0.458}
{"variant": "U27C C58U", "self-cleavage": 0.539}
{"variant": "U27C C58A", "self-cleavage": 0.458}
{"variant": "U27A G40A", "self-cleavage": 0.886}
{"variant": "U27A G40U", "self-cleavage": 0.793}
{"variant": "U27A U69C", "self-cleavage": 1.11}
{"variant": "U27A U69A", "self-cleavage": 0.831}
{"variant": "U27A U69G", "self-cleavage": 1.02}
{"variant": "U27G A78G", "self-cleavage": 0.532}
{"variant": "U27G A78C", "self-cleavage": 0.499}
{"variant": "U27C C44G", "self-cleavage": 0.277}
{"variant": "U27C C44A", "self-cleavage": 0.447}
{"variant": "U27G A77C", "self-cleavage": 0.277}
{"variant": "U27G A87G", "self-cleavage": 0.774}
{"variant": "U27G A87U", "self-cleavage": 0.763}
{"variant": "U27G C58G", "self-cleavage": 0.95}
{"variant": "U27G C58A", "self-cleavage": 0.516}
{"variant": "U27G C44U", "self-cleavage": 0.688}
{"variant": "U27G C44A", "self-cleavage": 0.475}
{"variant": "U27C A51C", "self-cleavage": 0.858}
{"variant": "U27C A51G", "self-cleavage": 0.914}
{"variant": "U27G C63A", "self-cleavage": 1.07}
{"variant": "U27G C63U", "self-cleavage": 1.11}
{"variant": "U27C C62U", "self-cleavage": 0.851}
{"variant": "U27C C62G", "self-cleavage": 0.615}
{"variant": "U27C G40U", "self-cleavage": 0.7}
{"variant": "U27G C64G", "self-cleavage": 0.87}
{"variant": "U27G A83U", "self-cleavage": 0.791}
{"variant": "U27G A83G", "self-cleavage": 0.755}
{"variant": "U27A U72A", "self-cleavage": 0.266}
{"variant": "U27A U72G", "self-cleavage": 0.739}
{"variant": "U27C C66G", "self-cleavage": 0.692}
{"variant": "U27C C66A", "self-cleavage": 0.59}
{"variant": "U27C C86U", "self-cleavage": 0.745}
{"variant": "U27C C86A", "self-cleavage": 0.875}
{"variant": "U27A G53A", "self-cleavage": 0.646}
{"variant": "U27A G53U", "self-cleavage": 0.798}
{"variant": "U27C G39A", "self-cleavage": 0.175}
{"variant": "U27C G39U", "self-cleavage": 0.467}
{"variant": "U27C U69C", "self-cleavage": 0.931}
{"variant": "U27C G55C", "self-cleavage": 0.847}
{"variant": "U27C G55A", "self-cleavage": 0.533}
{"variant": "U27C G55U", "self-cleavage": 0.426}
{"variant": "U27C A70G", "self-cleavage": 0.739}
{"variant": "U27C A70U", "self-cleavage": 0.72}
{"variant": "U27C C49G", "self-cleavage": 0.962}
{"variant": "U27C C49A", "self-cleavage": 0.776}
{"variant": "U27C G29U", "self-cleavage": 0.145}
{"variant": "U27C G31C", "self-cleavage": 0}
{"variant": "U27G A56U", "self-cleavage": 0.692}
{"variant": "U27G C49G", "self-cleavage": 0.665}
{"variant": "U27A U37C", "self-cleavage": 0.578}
{"variant": "U27A U37G", "self-cleavage": 0.119}
{"variant": "U27A U37A", "self-cleavage": 0.138}
{"variant": "U27A G82A", "self-cleavage": 0.849}
{"variant": "U27C G68A", "self-cleavage": 0.697}
{"variant": "U27C G68C", "self-cleavage": 0.511}
{"variant": "U27C C36U", "self-cleavage": 0.404}
{"variant": "U27C C32A", "self-cleavage": 0.0519}
{"variant": "U27C U47A", "self-cleavage": 0.519}
{"variant": "U27C U47G", "self-cleavage": 0.782}
{"variant": "U27C U47C", "self-cleavage": 0.511}
{"variant": "U27G A70G", "self-cleavage": 1.14}
{"variant": "U27C G82A", "self-cleavage": 0.396}
{"variant": "U27C G82C", "self-cleavage": 0.356}
{"variant": "U27C G76U", "self-cleavage": 0.883}
{"variant": "U27C G76A", "self-cleavage": 0.869}
{"variant": "U27G A42G", "self-cleavage": 0.289}
{"variant": "U27C U65G", "self-cleavage": 0.831}
{"variant": "U27C U65A", "self-cleavage": 0.957}
{"variant": "U27A U60C", "self-cleavage": 1.21}
{"variant": "U27C U37A", "self-cleavage": 0.0519}
{"variant": "U27C C84A", "self-cleavage": 0.923}
{"variant": "U27C C84U", "self-cleavage": 0.65}
{"variant": "U27C A42U", "self-cleavage": 0.475}
{"variant": "U27C U79A", "self-cleavage": 0.511}
{"variant": "U27C U79G", "self-cleavage": 0.32}
{"variant": "U27C U79C", "self-cleavage": 0.101}
{"variant": "U27C G38A", "self-cleavage": 0.0978}
{"variant": "U27C G38U", "self-cleavage": 0.131}
